Experimental data published in PMC10866667, “CTRP4/interleukin-6 receptor signaling ameliorates autoimmune encephalomyelitis by suppressing Th17 cell differentiation” (The Journal of Clinical Investigation, 2023).

T1: IL-6 receptor (IL-6R), in Jurkat cell membrane extract (UniProt P08887 20-468)
T1 construct: IL-6 receptor in membrane protein or membrane extract of Jurkat cells; also called IL-6Rα; source: Jurkat cells, membrane extract
T1 sequence (looked up): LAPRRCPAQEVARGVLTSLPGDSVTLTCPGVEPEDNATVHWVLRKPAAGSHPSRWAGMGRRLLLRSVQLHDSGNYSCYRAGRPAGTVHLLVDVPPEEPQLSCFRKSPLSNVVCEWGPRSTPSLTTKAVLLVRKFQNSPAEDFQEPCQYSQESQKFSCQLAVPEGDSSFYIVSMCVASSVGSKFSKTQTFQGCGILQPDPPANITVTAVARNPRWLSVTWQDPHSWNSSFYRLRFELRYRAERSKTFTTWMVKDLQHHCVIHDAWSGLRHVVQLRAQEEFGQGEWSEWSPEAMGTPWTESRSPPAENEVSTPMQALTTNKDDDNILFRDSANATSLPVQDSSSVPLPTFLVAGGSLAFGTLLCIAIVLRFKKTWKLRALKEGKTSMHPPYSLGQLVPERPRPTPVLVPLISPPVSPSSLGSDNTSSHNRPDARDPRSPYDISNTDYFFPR


Columns and labels:
[1] = target: T1, IL-6 receptor (IL-6R), in Jurkat cell …; test: radioligand binding; competition: Jurkat cell membrane extract and 125I-CTRP4 with different concentrations of unlabeled CTRP4, OSM or IL-6; 24 hours at 4°C, 25% PEG, γ counter; conditions: one partner purified
[2] = target: T1, IL-6 receptor (IL-6R), in Jurkat cell …; test: radioligand binding; saturation: equivalent quantities of Jurkat cell membrane extract with 2-fold serial dilutions of 125I-CTRP4; nonspecific binding with 500-fold excess of CTRP4; 24 hours at 4°C, 25% PEG, γ counter; conditions: one partner purified

Chain of 125I-CTRP4 (Q9BXJ3 17-329): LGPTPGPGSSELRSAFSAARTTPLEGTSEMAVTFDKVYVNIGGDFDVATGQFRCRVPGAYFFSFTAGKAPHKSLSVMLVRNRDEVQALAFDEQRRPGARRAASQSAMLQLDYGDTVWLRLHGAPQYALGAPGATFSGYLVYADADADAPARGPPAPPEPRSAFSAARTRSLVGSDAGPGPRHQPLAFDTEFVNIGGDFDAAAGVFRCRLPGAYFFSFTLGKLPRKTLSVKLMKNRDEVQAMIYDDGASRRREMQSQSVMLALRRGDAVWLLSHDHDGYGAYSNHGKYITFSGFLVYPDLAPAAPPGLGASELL

Row | IC50 [1] [nM] | Kd [2] [nM] | Binder
1 | 77.2 |  | rhCTRP4 protein (unlabeled) (natural protein, rhCTRP4 protein purified from CTRP4-CHO cells; also called unlabeled CTRP4; recombinant CTRP4 protein) not shown
2 |  | 3.94 | 125I-CTRP4 (natural protein, 125I label (chloramine T), rhCTRP4 protein purified from CTRP4-CHO cells; also called radio-iodinated CTRP4; 125I-labeled CTRP4) not shown
